Experimental data from paper PMC3315527 (2012).
One block for each binder: values may come before it.

How the values were obtained:
Toc64 (recombinant) = target: T1, Toc64 (recombinant) (Pisum sativum); assay: from ref 7
T1 chain: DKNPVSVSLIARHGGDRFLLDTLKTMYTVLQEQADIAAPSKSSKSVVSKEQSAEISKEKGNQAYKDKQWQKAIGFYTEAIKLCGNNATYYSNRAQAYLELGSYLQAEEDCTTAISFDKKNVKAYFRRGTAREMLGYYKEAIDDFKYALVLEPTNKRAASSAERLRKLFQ

[1] = target: chaperone receptors within native chloroplast membranes (dynamic TIRE); assay: native chloroplast membranes
OEP61 (recombinant) = target: T2, OEP61 (recombinant) (Arabidopsis thaliana); assay: from ref 7
T2 chain: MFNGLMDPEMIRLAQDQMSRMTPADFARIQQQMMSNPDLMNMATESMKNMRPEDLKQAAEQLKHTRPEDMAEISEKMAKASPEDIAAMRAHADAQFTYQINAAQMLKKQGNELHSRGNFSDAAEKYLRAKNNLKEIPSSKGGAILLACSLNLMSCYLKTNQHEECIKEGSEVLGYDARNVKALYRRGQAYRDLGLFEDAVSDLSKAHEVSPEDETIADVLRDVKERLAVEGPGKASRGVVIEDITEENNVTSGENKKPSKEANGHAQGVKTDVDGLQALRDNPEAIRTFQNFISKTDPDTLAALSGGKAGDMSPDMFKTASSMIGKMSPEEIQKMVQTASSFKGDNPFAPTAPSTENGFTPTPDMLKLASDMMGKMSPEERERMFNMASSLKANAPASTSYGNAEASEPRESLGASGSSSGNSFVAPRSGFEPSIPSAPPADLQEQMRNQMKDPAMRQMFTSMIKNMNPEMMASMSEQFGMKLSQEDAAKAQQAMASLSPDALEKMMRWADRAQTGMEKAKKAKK

- Ka (Toc64 (recombinant)): 7.6e+08 M⁻¹
- Kd [1]: 114 nM
B1: Hsp90-2 (At5g56030), full length (natural protein)
chain: not shown

- Ka (OEP61 (recombinant)): 1.03e+09 M⁻¹
- Kd [1]: 109 nM
B2: Hsp70-1 (At5g02500), full length (natural protein)
chain: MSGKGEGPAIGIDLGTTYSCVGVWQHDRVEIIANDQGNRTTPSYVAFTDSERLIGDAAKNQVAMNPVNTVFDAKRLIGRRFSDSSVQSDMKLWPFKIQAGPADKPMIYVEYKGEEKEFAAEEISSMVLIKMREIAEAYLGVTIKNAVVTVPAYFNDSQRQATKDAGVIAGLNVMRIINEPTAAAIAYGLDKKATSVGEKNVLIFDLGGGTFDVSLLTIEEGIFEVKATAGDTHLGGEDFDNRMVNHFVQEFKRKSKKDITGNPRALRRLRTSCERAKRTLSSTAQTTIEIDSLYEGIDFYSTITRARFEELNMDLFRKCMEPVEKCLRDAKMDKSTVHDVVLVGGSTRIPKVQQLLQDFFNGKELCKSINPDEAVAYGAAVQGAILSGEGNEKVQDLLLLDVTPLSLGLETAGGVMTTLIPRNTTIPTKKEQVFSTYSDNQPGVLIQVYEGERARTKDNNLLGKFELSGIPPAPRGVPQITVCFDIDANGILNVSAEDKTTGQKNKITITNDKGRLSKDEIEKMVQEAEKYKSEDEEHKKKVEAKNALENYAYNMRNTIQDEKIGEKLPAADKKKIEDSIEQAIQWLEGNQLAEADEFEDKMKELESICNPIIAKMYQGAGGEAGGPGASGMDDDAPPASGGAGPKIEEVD
